Here are results for four proteins from article PMC9424733, “Lysine acetylation of Escherichia coli lactate dehydrogenase regulates enzyme activity and lactate synthesis” (Frontiers in Bioengineering and Biotechnology, 2022).

Sequences and labels used below:
B1: Escherichia coli lactate dehydrogenase (LdhA), wild type (enzyme, UniProt P52643 1-329, looked up)
chain: MKLAVYSTKQYDKKYLQQVNESFGFELEFFDFLLTEKTAKTANGCEAVCIFVNDDGSRPVLEELKKHGVKYIALRCAGFNNVDLDAAKELGLKVVRVPAYDPEAVAEHAIGMMMTLNRRIHRAYQRTRDANFSLEGLTGFTMYGKTAGVIGTGKIGVAMLRILKGFGMRLLAFDPYPSAAALELGVEYVDLPTLFSESDVISLHCPLTPENYHLLNEAAFEQMKNGVMIVNTSRGALIDSQAAIEALKNQKIGSLGMDVYENERDLFFEDKSNDVIQDDVFRRLSACHNVLFTGHQAFLTAEALTSISQTTLQNLSNLEKGETCPNELV
notes: D-lactate dehydrogenase LdhA of Escherichia coli; Partly acetylated on K9, K70, K154 and K248 when grown with 2% glucose (mass spectrometry); also called EcLdhA; NAD-dependent lactate dehydrogenase
B2: Escherichia coli LdhA (K248Q) (enzyme, UniProt P52643 1-329, looked up)
chain: B1 chain with K248Q
notes: D-lactate dehydrogenase LdhA of Escherichia coli with K248Q (mimics acetyl-lysine); Same construct as m1 with the point mutation; also called LdhA K248Q mutant
B3: Escherichia coli LdhA (K248R) (enzyme, UniProt P52643 1-329, looked up)
chain: B1 chain with K248R
notes: D-lactate dehydrogenase LdhA of Escherichia coli with K248R; Same construct as m1 with the point mutation; also called LdhA K248R mutant
B4: Escherichia coli LdhA (D279N) (enzyme, UniProt P52643 1-329, looked up)
chain: B1 chain with D279N
notes: D-lactate dehydrogenase LdhA of Escherichia coli with D279N; Same construct as m1 with the point mutation; also called LdhA D279N mutant

Substitutions are numbered along the chain they refer to. In names and notes the source's numbering stands.

The data set deals with the molecule itself. The data set is described as follows: SEC; gel filtration analysis of purified LdhA and mutants; retention volumes of the highest peaks compared; column and buffer not told.
For B1, the “stoichiometry N” value stood at 4.
Take B2: the “stoichiometry N” value came out at 4.
As to B3, the “stoichiometry N” value was determined as 4.
With B4, the “stoichiometry N” value came to 4.
